Measured values as given in the supplement of paper PMC11246515.
± gives the standard deviation of the averaged measurements.

Assay: total protein half-life in vivo (active degradation + dilution); higher = more stable protein
[1] = E. coli NCM3722 delta-clpP delta-lon delta-hslV, growth: N-lim chemostat, doubling time 6 h
[2] = E. coli NCM3722 delta-clpP, growth: N-lim chemostat, doubling time 6 h
[3] = E. coli NCM3722 delta-hslV, growth: N-lim chemostat, doubling time 6 h
[4] = E. coli NCM3722 delta-lon, growth: N-lim chemostat, doubling time 6 h
[5] = E. coli NCM3722 delta-smpB, growth: N-lim chemostat, doubling time 6 h
[6] = wild type E. coli NCM3722, growth: C-lim chemostat, doubling time 3 h
[7] = wild type E. coli NCM3722, growth: C-lim chemostat, doubling time 6 h
[8] = wild type E. coli NCM3722, growth: C-lim chemostat, doubling time 12 h
[9] = wild type E. coli NCM3722, growth: N-lim chemostat, doubling time 6 h
[10] = wild type E. coli NCM3722, growth: N-lim chemostat, doubling time 12 h
[11] = wild type E. coli NCM3722, growth: P-lim chemostat, doubling time 6 h
[12] = wild type E. coli NCM3722, growth: P-lim chemostat, doubling time 12 h

Question: Which results are given for “MLNPIVRKFQYGQHTVTLETGMMARQATAAVMVSMDDTAVFVTVVGQKKAKPGQDFFPLTVNYQERTYAAGRIPGSFFRREGRPSEGETLIARLIDRPIRPLFPEGFVNEVQVIATVVSVNPQVNPDIVAMIGASAALSLSGIPFNGPIGAARVGYINDQYVLNPTQDELKESKLDLVVAGTEAAVLMVESEAQLLSEDQMLGAVVFGHEQQQVVIQNINELVKEAGKPRWDWQPEPVNEALNARVAALAEARLSDAYRITDKQERYAQVDVIKSETIATLLAEDETLDENELGEILHAIEKNVVRSRVLAGEPRIDGREKDMIRGLDVRTGVLPRTHGSALFTRGETQALVTATLGTARDAQVLDELMGERTDTFLFHYNFPPYSVGETGMVGSPKRREIGHGRLAKRGVLAVMPDMDKFPYTVRVVSEITESNGSSSMASVCGASLALMDAGVPIKAAVAGIAMGLVKEGDNYVVLSDILGDEDHLGDMDFKVAGSRDGISALQMDIKIEGITKEIMQVALNQAKGARLHILGVMEQAINAPRGDISEFAPRIHTIKINPDKIKDVIGKGGSVIRALTEETGTTIEIEDDGTVKIAATDGEKAKHAIRRIEEITAEIEVGRVYTGKVTRIVDFGAFVAIGGGKEGLVHISQIADKRVEKVTDYLQMGQEVPVKVLEVDRQGRIRLSIKEATEQSQPAAAPEAPAAEQGE”?
Answer: total protein half-life in vivo [1]: 6.65 ± 0.71 h; total protein half-life in vivo [2]: 6.67 ± 0.63 h; total protein half-life in vivo [3]: 5.92 ± 0.65 h; total protein half-life in vivo [4]: 6.01 ± 0.18 h; total protein half-life in vivo [5]: 5.58 ± 0.41 h; total protein half-life in vivo [6]: 3.25 ± 0.055 h; total protein half-life in vivo [7]: 6.31 ± 0.21 h; total protein half-life in vivo [8]: 11.5 ± 0.16 h; total protein half-life in vivo [9]: 5.78 ± 0.26 h; total protein half-life in vivo [10]: 11.8 ± 0.57 h; total protein half-life in vivo [11]: 6.05 ± 0.14 h; total protein half-life in vivo [12]: 12.4 ± 1.5 h

Question: Which “total protein half-life in vivo” value [7] does the source give for “MNGTIYQRIEDNAHFRELVEKRQRFATILSIIMLAVYIGFILLIAFAPGWLGTPLNPNTSVTRGIPIGVGVIVISFVLTGIYIWRANGEFDRLNNEVLHEVQAS [P0AF54]” here?
Answer: 5.84 ± 0.1 h

Question: What about the “total protein half-life in vivo” value [8] of the same sequence?
Answer: 8.72 ± 0.83 h

Question: For “MRNLVKYVGIGLLVMGLAACDDKDTNATAQGSVAESNATGNPVNLLDGKLSFSLPADMTDQSGKLGTQANNMHVWSDATGQKAVIVIMGDDPKEDLAVLAKRLEDQQRSRDPQLQVVTNKAIELKGHKMQQLDSIISAKGQTAYSSVILGNVGNQLLTMQITLPADDQQKAQTTAENIINTLVIQ [P0AEE1]”, which “total protein half-life in vivo” value [1] is on record?
Answer: 6.11 ± 1.1 h

Question: What about the “total protein half-life in vivo” value [2] of the same sequence?
Answer: 5.96 ± 0.21 h

Question: And the “total protein half-life in vivo” value [3]?
Answer: 5.42 ± 0.085 h

Question: And the “total protein half-life in vivo” value [4]?
Answer: 6.24 ± 0.22 h

Question: What about the “total protein half-life in vivo” value [5] of the same sequence?
Answer: 6.05 ± 1.3 h

Question: What about the “total protein half-life in vivo” value [8] of the same sequence?
Answer: 11.3 ± 1 h

Question: What about the “total protein half-life in vivo” value [9] of the same sequence?
Answer: 5.6 ± 0.16 h

Question: And the “total protein half-life in vivo” value [10]?
Answer: 10.9 ± 0.59 h

Question: And the “total protein half-life in vivo” value [11]?
Answer: 5.55 ± 1.2 h

Question: What about the “total protein half-life in vivo” value [12] of the same sequence?
Answer: 10.9 ± 0.47 h

Question: Which “total protein half-life in vivo” value [1] does the source give for “MAKEISSELLNTILTRVGGPGNIASCGNCMTRLRLGVHDSSLVDPNIKTLEGVKGVILTSDQVQVVFGPGKAHRAAKAMSELLGEAPVQDAAEIAAQNKRQLKAKQTSGVQQFLAKFATIFTPLIPGFIAAGLLLGIATLIATVMHVPADAQGTLPDALNFMKVFSKGLFTFLVILVGYNAAQAFGGTGVNGAIIAALFLLGYNPAATTGYYAGFHDFFGLPIDPRGNIIGVLIAAWACARIEGMVRRFMPDDLDMLLTSLITLLITATLAYLIIMPLGGWLFEGMSWLFMHLNSNPFGCAVLAGLFLIAVVFGVHQGFIPVYLALMDSQGFNSLFPILSMAGAGQVGAALALYWRAQPHSALRSQVRGAIIPGLLGVGEPLIYGVTLPRMKPFVTACLGGAAGGLFIGLIAWWGLPMGLNSAFGPSGLVALPLMTSAQGILPAMAVYAGGILVAWVCGFIFTTLFGCRNVNLD” here?
Answer: 3.66 h

Question: What about the “total protein half-life in vivo” value [2] of the same sequence?
Answer: 3.67 h

Question: What about the “total protein half-life in vivo” value [5] of the same sequence?
Answer: 6.02 h

Question: What about the “total protein half-life in vivo” value [6] of the same sequence?
Answer: 3.48 h

Question: And the “total protein half-life in vivo” value [7]?
Answer: 5.06 h

Question: What about the “total protein half-life in vivo” value [9] of the same sequence?
Answer: 5.006 ± 0.029 h

Question: With “MDLQHWQAQFENWLKNHHQHQDAAHDVCHFRRVWATAQKLAADDDVDMLVILTACYFHDIVSLAKNHPQRQRSSILAAEETRRLLREEFEQFPAEKIEAVCHAIAAHSFSAQIAPLTTEAKIVQDADRLEALGAIGLARVFAVSGALGVALFDGEDPFAQHRPLDDKRYALDHFQTKLLKLPQTMQTARGKQLAQHNAHFLVEFMAKLSAELAGENEGVDHKVIDAFSSAG” as the sequence, how does the “total protein half-life in vivo” value [1] read?
Answer: 4.36 ± 0.052 h

Question: And the “total protein half-life in vivo” value [2]?
Answer: 3.48 ± 0.37 h

Question: And the “total protein half-life in vivo” value [3]?
Answer: 2.72 h

Question: What about the “total protein half-life in vivo” value [5] of the same sequence?
Answer: 2.92 ± 0.03 h

Question: What about the “total protein half-life in vivo” value [6] of the same sequence?
Answer: 2.09 ± 0.078 h

Question: And the “total protein half-life in vivo” value [9]?
Answer: 2.29 h

Question: And the “total protein half-life in vivo” value [10]?
Answer: 3.19 h

Question: And the “total protein half-life in vivo” value [11]?
Answer: 2.83 ± 0.28 h

Question: What about the “total protein half-life in vivo” value [12] of the same sequence?
Answer: 4.67 ± 0.13 h

Question: For “MRKIALILAMLLIPCVSFAGLLGSSSSTTPVSKEYKQQLMGSPVYIQIFKEERTLDLYVKMGEQYQLLDSYKICKYSGGLGPKQRQGDFKSPEGFYSVQRNQLKPDSRYYKAINIGFPNAYDRAHGYEGKYLMIHGDCVSIGCYAMTNQGIDEIFQFVTGALVFGQPSVQVSIYPFRMTDANMKRHKYSNFKDFWEQLKPGYDYFEQTRKPPTVSVVNGRYVVSKPLSHEVVQPQLASNYTLPEAK [P0AA99]”, which “total protein half-life in vivo” value [1] is on record?
Answer: 0.797 h

Question: And the “total protein half-life in vivo” value [2]?
Answer: 0.657 ± 0.077 h

Question: What about the “total protein half-life in vivo” value [3] of the same sequence?
Answer: 0.844 h

Question: What about the “total protein half-life in vivo” value [4] of the same sequence?
Answer: 0.64 h

Question: What about the “total protein half-life in vivo” value [5] of the same sequence?
Answer: 0.689 ± 0.063 h

Question: And the “total protein half-life in vivo” value [6]?
Answer: 0.313 ± 0.18 h

Question: And the “total protein half-life in vivo” value [7]?
Answer: 1.37 h

Question: And the “total protein half-life in vivo” value [8]?
Answer: 1.81 h

Question: What about the “total protein half-life in vivo” value [9] of the same sequence?
Answer: 0.909 ± 0.048 h

Question: And the “total protein half-life in vivo” value [10]?
Answer: 1.54 ± 0.73 h

Question: And the “total protein half-life in vivo” value [11]?
Answer: 0.858 ± 0.34 h

Question: And the “total protein half-life in vivo” value [12]?
Answer: 1.45 ± 0.56 h

Question: With “MSTQEATLQQPLLQAIDLKKHYPVKKGMFAPERLVKALDGVSFNLERGKTLAVVGESGCGKSTLGRLLTMIEMPTGGELYYQGQDLLKHDPQAQKLRRQKIQIVFQNPYGSLNPRKKVGQILEEPLLINTSLSKEQRREKALSMMAKVGLKTEHYDRYPHMFSGGQRQRIAIARGLMLDPDVVIADEPVSALDVSVRAQVLNLMMDLQQELGLSYVFISHDLSVVEHIADEVMVMYLGRCVEKGTKDQIFNNPRHPYTQALLSATPRLNPDDRRERIKLSGELPSPLNPPPGCAFNARCRRRFGPCTQLQPQLKDYGGQLVACFAVDQDENPQR” as the sequence, how does the “total protein half-life in vivo” value [1] read?
Answer: 6.25 ± 0.25 h

Question: What about the “total protein half-life in vivo” value [2] of the same sequence?
Answer: 5.92 ± 0.29 h

Question: And the “total protein half-life in vivo” value [3]?
Answer: 6.41 ± 0.085 h

Question: What about the “total protein half-life in vivo” value [4] of the same sequence?
Answer: 6.11 ± 0.94 h

Question: And the “total protein half-life in vivo” value [5]?
Answer: 5.605 ± 0.031 h

Question: And the “total protein half-life in vivo” value [6]?
Answer: 2.88 ± 0.33 h

Question: And the “total protein half-life in vivo” value [7]?
Answer: 6.28 ± 0.43 h

Question: And the “total protein half-life in vivo” value [8]?
Answer: 11.6 ± 0.25 h

Question: What about the “total protein half-life in vivo” value [9] of the same sequence?
Answer: 6.08 ± 0.62 h

Question: What about the “total protein half-life in vivo” value [10] of the same sequence?
Answer: 13.1 ± 0.71 h

Question: And the “total protein half-life in vivo” value [11]?
Answer: 6.16 ± 0.27 h

Question: What about the “total protein half-life in vivo” value [12] of the same sequence?
Answer: 13.1 ± 0.21 h

Question: Which “total protein half-life in vivo” value [2] does the source give for “MPLHNLTRFPRLEFIGAPTPLEYLPRFSDYLGREIFIKRDDVTPMAMGGNKLRKLEFLAADALREGADTLITAGAIQSNHVRQTAAVAAKLGLHCVALLENPIGTTAENYLTNGNRLLLDLFNTQIEMCDALTDPNAQLEELATRVEAQGFRPYVIPVGGSNALGALGYVESALEIAQQCEGAVNISSVVVASGSAGTHAGLAVGLEHLMPESELIGVTVSRSVADQLPKVVNLQQAIAKELELTASAEILLWDDYFAPGYGVPNDEGMEAVKLLARLEGILLDPVYTGKAMAGLIDGISQKRFKDEGPILFIHTGGAPALFAYHPHV” here?
Answer: 5.78 ± 0.85 h

Question: What about the “total protein half-life in vivo” value [3] of the same sequence?
Answer: 5.5 ± 0.72 h

Question: And the “total protein half-life in vivo” value [4]?
Answer: 6.76 ± 0.46 h

Question: What about the “total protein half-life in vivo” value [5] of the same sequence?
Answer: 5.72 ± 0.2 h

Question: What about the “total protein half-life in vivo” value [6] of the same sequence?
Answer: 3.17 ± 0.16 h

Question: And the “total protein half-life in vivo” value [7]?
Answer: 5.52 ± 0.73 h

Question: And the “total protein half-life in vivo” value [9]?
Answer: 5.78 ± 0.087 h

Question: And the “total protein half-life in vivo” value [10]?
Answer: 11.6 ± 0.43 h

Question: And the “total protein half-life in vivo” value [11]?
Answer: 5.91 ± 0.16 h

Question: What about the “total protein half-life in vivo” value [12] of the same sequence?
Answer: 12.259 ± 0.0094 h
